Results published in article PMC5973687 (mAbs, 2018).

Tests used:
[1] = biological target: DR3-Fc (UniProt Q93038); assay: ELISA
[2] = biological target: T1, DcR3-Fc (UniProt O95407 30-300); assay: ELISA
T1 sequence (looked up): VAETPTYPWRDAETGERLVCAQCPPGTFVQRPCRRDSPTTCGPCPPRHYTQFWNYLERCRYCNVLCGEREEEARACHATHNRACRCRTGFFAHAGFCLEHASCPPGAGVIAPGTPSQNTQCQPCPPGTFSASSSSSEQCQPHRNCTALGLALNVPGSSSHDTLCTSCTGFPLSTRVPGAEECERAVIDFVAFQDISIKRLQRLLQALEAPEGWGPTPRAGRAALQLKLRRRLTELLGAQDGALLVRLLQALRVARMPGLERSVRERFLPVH

Sequence of DR3-Fc (Q93038 25-199): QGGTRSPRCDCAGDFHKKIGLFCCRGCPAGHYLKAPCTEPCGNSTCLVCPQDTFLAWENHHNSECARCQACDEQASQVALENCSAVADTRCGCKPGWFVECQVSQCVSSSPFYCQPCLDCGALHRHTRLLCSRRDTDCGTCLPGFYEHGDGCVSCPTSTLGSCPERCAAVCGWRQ

TL1A-R32A (ligand) showed a decrease in binding against wild-type TL1A [1] of 50%.

B1: human TL1A (extracellular domain, recombinant) (ligand, UniProt O95150 57-251, looked up)
chain: SQLRAQGEACVQFQALKGQEFAPSHQQVYAPLRADGDKPRAHLTVVRQTPTQHFKNQFPALHWEHELGLAFTKNRMNYTNKFLLIPESGDYFIYSQVTFRGMTSECSEIRQAGRPNKPDSITVVITKVTDSYPEPTQLLMGTKSVCEVGSNWFQPIYLGAMFSLQEGDKLMVNVSDISLVDYTKEDKTFFGAFLL
modifications: biotin (single-site biotinylated, site not stated) in the competition ELISA
B1: binds [2].
